Experimental data taken from article PMC3154929, “Phosphatase-Coupled Universal Kinase Assay and Kinetics for First-Order-Rate Coupling Reaction” (PLoS ONE, 2011).

How the values were obtained:
[1] = substrate: Nc1ncnc2c1ncn2[C@@H]1O[C@H](COP(=O)(O)OP(=O)(O)OP(=O)(O)O)[C@@H](O)[C@H]1O; assay: malachite green phosphate release assay; assay type: biochemical, Mus musculus; conditions: 25 mM Tris, 150 mM NaCl, 10 mM MgCl2, 10 mM CaCl2, pH 7.5, room temperature
From the text: (§1) malachite green phosphate release assay on CD39L2 (ENTPD6)

[2] = substrate: Nc1ncnc2c1ncn2[C@@H]1O[C@H](COP(=O)(O)OP(=O)(O)O)[C@@H](O)[C@H]1O; assay: malachite green phosphate release assay; assay type: biochemical, Mus musculus; conditions: 25 mM Tris, 150 mM NaCl, 10 mM MgCl2, 10 mM CaCl2, pH 7.5, room temperature
From the text: as §1

purified protein = substrate: Nc1ncnc2c1ncn2[C@@H]1O[C@H](COP(=O)(O)OP(=O)(O)OP(=O)(O)O)[C@@H](O)[C@H]1O; assay: purified protein; assay type: biochemical, Homo sapiens; conditions: 20 mM glucose, 10 mM MgCl2, 10 mM CaCl2, 150 mM NaCl, 25 mM Tris pH 7.5, room temperature

B1: CD39L2 (ENTPD6) (Mus musculus) (protein)
chain: MRKIPNHGTLRMTKVAYPLGLCVGLFIYVAYIKWHRASAAQAFFTIAGAASGARWTQQAFSSPGSAARGHEVFYGIMFDAGSTGTRIHVFQFARPPGETPTLTHETFKALKPGLSAYADDVEKSAQGIQELLNVAKQHIPYDFWKATPLVLKATAGLRLLPGEKAQKLLQKVKEVFKASPFLVGDDCVSIMNGTDEGVSAWITVNFLTGSLKTPGSSSVGMLDLGGGSTQITFLPRVEGTLQASPPGHLTALQMFNRTYKLYSYSYLGLGLMSARLAILGGVEGKPAENDKELVSPCLSPRFRGEWEHAEVTYRISGQKAVGLYELCASRVSEVLRNKVHRTEEAQHVDFYAFSYYYDLAASFGLIDAEKGGSLVVGDFEIAAKYVCRTLETQPPSSPFACMDLTYISLLLHEFGFPGDKVLKLARKIDNVETSWALGAIFHYIDSLKRQKVPAL
notes: recombinant, R&D Systems
[1]
  Km: 1140 µM
  Vmax: 0.928 µmol/min/mg
  kcat: 0.617 s⁻¹
  kcat/Km: 727 M⁻¹ s⁻¹
[2]
  Km: 1050 µM
  Vmax: 49.1 µmol/min/mg
  kcat: 38.5 s⁻¹
  kcat/Km: 36600 M⁻¹ s⁻¹

B2: human glucokinase (GCK) (Homo sapiens) (protein)
chain: VEQILAEFQLQEEDLKKVMRRMQKEMDRGLRLETHEEASVKMLPTYVRSTPEGSEVGDFLSLDLGGTNFRVMLVKVGEGEEGQWSVKTKHQMYSIPEDAMTGTAEMLFDYISECISDFLDKHQMKHKKLPLGFTFSFPVRHEDIDKGILLNWTKGFKASGAEGNNVVGLLRDAIKRRGDFEMDVVAMVNDTVATMISCYYEDHQCEVGMIVGTGCNACYMEEMQNVELVEGDEGRMCVNTEWGAFGDSGELDEFLLEYDRLVDESSANPGQQLYEKLIGGKYMGELVRLVLLRLVDENLLFHGEASEQLRTRGAFETRFVSQVESDTGDRKQIYNILSTLGLRPSTTDCDIVRRACESVSTRAAHMCSAGLAGVINRMRESRSEDVMRITVGVDGSVYKLHPSFKERFHASVRRLTPSCEITFIESEEGSGRGAALVSAVACKKACMLGQ
notes: V16 to Q465, N-terminal 6xHis tag, expressed in E. coli
Purified protein
  Km: 3550 µM
